Positions count from the first letter of the chain named.
T1: Claudin 3 (UniProt O15551 1-220)
T1 construct: also called CLDN3
T1 sequence (looked up): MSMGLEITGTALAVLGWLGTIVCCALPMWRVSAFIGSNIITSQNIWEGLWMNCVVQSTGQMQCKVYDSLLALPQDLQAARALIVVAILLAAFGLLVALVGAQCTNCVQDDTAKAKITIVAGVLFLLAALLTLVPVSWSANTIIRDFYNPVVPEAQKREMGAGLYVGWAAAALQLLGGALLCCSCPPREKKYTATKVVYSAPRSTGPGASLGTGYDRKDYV

T2: A153S
T2 construct: Shotgun Mutagenesis mutant; also called Claudin 6 A153S
T2 chain: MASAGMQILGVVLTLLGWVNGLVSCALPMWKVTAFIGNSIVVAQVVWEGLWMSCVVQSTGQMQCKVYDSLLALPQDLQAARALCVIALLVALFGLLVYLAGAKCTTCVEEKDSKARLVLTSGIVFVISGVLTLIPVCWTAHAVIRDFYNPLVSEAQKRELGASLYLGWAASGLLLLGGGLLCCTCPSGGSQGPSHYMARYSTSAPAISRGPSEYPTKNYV

T3: E48A
T3 construct: Shotgun Mutagenesis mutant; also called Claudin 6 E48A
T3 chain: T2 chain with E48A, S153A

T4: Q78A
T4 construct: Shotgun Mutagenesis mutant; also called Claudin 6 Q78A
T4 chain: T2 chain with Q78A, S153A

T5: D68A
T5 construct: Shotgun Mutagenesis mutant; also called Claudin 6 D68A
T5 chain: T2 chain with D68A, S153A

T6: R158A
T6 construct: Shotgun Mutagenesis mutant; also called Claudin 6 R158A
T6 chain: T2 chain with S153A, R158A

T7: E154A
T7 construct: Shotgun Mutagenesis mutant; also called Claudin 6 E154A
T7 chain: T2 chain with S153A, E154A

T8: V45A
T8 construct: Shotgun Mutagenesis mutant; also called Claudin 6 V45A
T8 chain: T2 chain with V45A, S153A

T9: P74A
T9 construct: Shotgun Mutagenesis mutant; also called Claudin 6 P74A
T9 chain: T2 chain with P74A, S153A

T10: Q156L
T10 construct: Shotgun Mutagenesis mutant; also called Claudin 6 Q156L
T10 chain: T2 chain with S153A, Q156L

B1: IM171 (antibody, V domains shown)
VH: AVTLDESGGGLQTPGGALSLVCKASGFDFSSYAMNWVRQAPGKGLEWVAGIGSTGSSTGYGPAVKGRATISRDNGQSTLRLQLNNLRAEDTAIYYCAKSVGNGNSWSGYIATSIDAWGHGTEVIVSS
VL: ALTQPSSVSANLGGTVKLTCSGGSSGYGWYQQKSPGSAPVTVIYSNDKRPSDIPSRFSGSLSGSTGTLTITGVQADDEAVYFCGSTDNSYVGIFGAGTTLTVL
notes: Detected with anti-human IgG Fc secondary; also called LM171
B2: IM173 (antibody, V domains shown)
VH: AVTLDESGGGLQTPGGALSLVCKASGFTFSSYSMFWVRRAPGKGLEWVAGIDSGSTTFYGSAVKGRATISRDNGQSTVRLQLNNLRAEDTATYYCAKDAYGYCGWSGCSADSIDAWGHGTEVIVSS
VL: ALTQPSSVSANPGGTVEITCSGGNNYYGWYQQKSPGSAPVTVIYYNDKRPSDIPSRFSGSKSGSTGTLTITGVQADDEAVYFCGGWDSSGGIFGAGTTLTVL
notes: Detected with anti-human IgG Fc secondary

Key:
[1] = biological target: T1, Claudin 3; test: flow cytometry, HEK-293T cells transiently transfected with the indicated claudin; pUC19 = empty vector control
Experimental: FIG. 2 illustrates the results of a binding assay showing that Claudin 6 MAbs bind to human Claudin 6 preferentially over other Claudin proteins. Human embryonic kidney 293T (HEK-293T) cells were transiently transfected with DNA for the indicated Claudin protein or empty vector along with GFP (pUC) for 22 hours.

[2] = biological target: T2, A153S; test: Shotgun Mutagenesis epitope mapping; mean (range), % of wild-type Claudin 6
[3] = biological target: T3, E48A; test: as above
[4] = biological target: T4, Q78A; test: as above
[5] = biological target: T5, D68A; test: as above
[6] = biological target: T6, R158A; test: as above
[7] = biological target: T7, E154A; test: as above
[8] = biological target: T8, V45A; test: as above
[9] = biological target: T9, P74A; test: as above
[10] = biological target: T10, Q156L; test: as above

Binder	binding result [1]	Binding Reactivity (% WT) [2] [% WT]	Binding Reactivity (% WT) [3] [% WT]	Binding Reactivity (% WT) [4] [% WT]	Binding Reactivity (% WT) [5] [% WT]	Binding Reactivity (% WT) [6] [% WT]	Binding Reactivity (% WT) [7] [% WT]	Binding Reactivity (% WT) [8] [% WT]	Binding Reactivity (% WT) [9] [% WT]	Binding Reactivity (% WT) [10] [% WT]
B1	no binding (tested: log [mAb] about -7.2 M)	24	0.9	151	93.7	1.3	4	88.4	37.5	10
B2	no binding (tested: log [mAb] about -7.2 M)	113	-0.5	144	89.6	3.6	134	76.1	147	10.7
